Drawing on paper PMC9122904, “Insights into the client protein release mechanism of the ATP-independent chaperone Spy” (Nature Communications, 2022), this text covers kon and Kd for one molecule.

Holding throughout (assay): BLI; Octet RED96; client biotinylated and loaded on streptavidin sensors; Spy or Spy variant in solution at 0.25, 0.5, 1, 1.5 and 2 μM; 40 mM HEPES, 150 mM NaCl, pH 7.5; Kd calculated as koff/kon
Common to all, as to settings: both partners purified

One assay addresses T1, Spy_(29-124) R43D (UniProt P77754 52-147, R43D).
T1 construct: source: E. coli BL21 (DE3), purified (Ni-NTA, cation exchange, SEC); not shown: His6, N-terminal, cleaved; SUMO, N-terminal, cleaved
T1 sequence (looked up): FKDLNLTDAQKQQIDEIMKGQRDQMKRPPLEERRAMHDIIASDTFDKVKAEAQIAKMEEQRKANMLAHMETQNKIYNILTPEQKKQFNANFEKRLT

In the next assay the target is T2, Spy_(29-124) R50D (UniProt P77754 52-147, R50D).
T2 construct: source: E. coli BL21 (DE3), purified (Ni-NTA, cation exchange, SEC); not shown: His6, N-terminal, cleaved; SUMO, N-terminal, cleaved
T2 sequence (looked up): T1 sequence (looked up) with D15R, R22D

In a further assay the target is T3, Spy_(29-124) K54D R55D (UniProt P77754 52-147, K54D | R55D).
T3 construct: source: E. coli BL21 (DE3), purified (Ni-NTA, cation exchange, SEC); not shown: His6, N-terminal, cleaved; SUMO, N-terminal, cleaved
T3 sequence (looked up): T1 sequence (looked up) with D15R, K26D, R27D

The target in another assay is T4, Spy_(29-124) K75D (UniProt P77754 52-147, K75D).
T4 construct: source: E. coli BL21 (DE3), purified (Ni-NTA, cation exchange, SEC); not shown: His6, N-terminal, cleaved; SUMO, N-terminal, cleaved
T4 sequence (looked up): T1 sequence (looked up) with D15R, K47D

The next assay addresses T5, Spy_(29-124) R89D (UniProt P77754 52-147, R89D).
T5 construct: source: E. coli BL21 (DE3), purified (Ni-NTA, cation exchange, SEC); not shown: His6, N-terminal, cleaved; SUMO, N-terminal, cleaved
T5 sequence (looked up): T1 sequence (looked up) with D15R, R61D

The next assay has as its target T6, Spy_(29-124) H96D (UniProt P77754 52-147, H96D).
T6 construct: source: E. coli BL21 (DE3), purified (Ni-NTA, cation exchange, SEC); not shown: His6, N-terminal, cleaved; SUMO, N-terminal, cleaved
T6 sequence (looked up): T1 sequence (looked up) with D15R, H68D

The next assay has as its target T7, Spy_(29-124) K121D R122D (UniProt P77754 52-147, K121D | R122D).
T7 construct: source: E. coli BL21 (DE3), purified (Ni-NTA, cation exchange, SEC); not shown: His6, N-terminal, cleaved; SUMO, N-terminal, cleaved
T7 sequence (looked up): T1 sequence (looked up) with D15R, K93D, R94D

In a further assay the target is T8, Spy_(29-138) (UniProt P77754 52-161).
T8 construct: source: E. coli BL21 (DE3), purified (Ni-NTA, cation exchange, SEC); not shown: His6, N-terminal, cleaved; SUMO, N-terminal, cleaved
T8 sequence (looked up): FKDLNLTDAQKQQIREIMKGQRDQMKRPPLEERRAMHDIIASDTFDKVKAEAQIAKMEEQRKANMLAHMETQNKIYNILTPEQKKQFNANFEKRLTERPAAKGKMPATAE
Summed up: (§1)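 Biolayer interferometry used an Octet RED96: client proteins biotinylated with EZ-link NHS-biotin (1:1 molar ratio) were loaded on streptavidin sensors, dipped into 40 mM HEPES, 150 mM NaCl, pH 7.5 containing Spy protein at 0.25, 0.5, 1, 1.5 and 2 μM, then moved to Spy-free buffer. Wavelength-shift association and dissociation curves were fitted in SigmaPlot 12.0, giving observed association rate and koff. kon came from observed rate versus Spy concentration; Kd was koff/kon.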

A further assay has as its target T9, Spy_(21-130) (UniProt P77754 44-153).
T9 construct: Spy chaperone, residues 21-130; source: E. coli BL21 (DE3), purified (Ni-NTA, cation exchange, SEC); not shown: His6, N-terminal, cleaved; SUMO, N-terminal, cleaved
T9 sequence (looked up): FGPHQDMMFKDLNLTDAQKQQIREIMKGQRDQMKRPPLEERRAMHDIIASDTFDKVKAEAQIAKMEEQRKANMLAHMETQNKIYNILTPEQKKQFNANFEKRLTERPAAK
The method in brief:
as §1

Residue numbers refer to the chain shown, from its start. Names may count otherwise.

In general, kon refers to a measure of how fast the partners come together. As usually defined, the Kd is the constant that tells how readily two partners part at equilibrium.

B1: Im7 H40W L53A I54A (natural protein)
chain: MELKNSISDYTEAEFVQLLKEIEKENVAATDDVLDVLLEWFVKITEHPDGTDAAYYPSDNRDDSPEGIVKEIKEWRAANGKPGFKQG
modifications: biotin (EZ-link NHS-biotin, 1:1 molar ratio of biotin to protein)
notes: Im7 (colicin E7 immunity protein) with H40W L53A I54A; Spy was made with an N-terminal His6-SUMO tag that was cleaved; also called Im7AAW; partially folded client; source: purified by a similar procedure to Spy
B1: the kon in the assay with Spy_(29-124) R43D was 196000 M⁻¹ s⁻¹; with Spy_(29-124) R50D it was 178000 M⁻¹ s⁻¹; with Spy_(29-124) K54D R55D, 126000 M⁻¹ s⁻¹; with Spy_(29-124) K75D, 156000 M⁻¹ s⁻¹; in the assay with Spy_(29-124) R89D, 48000 M⁻¹ s⁻¹; with Spy_(29-124) H96D, 185000 M⁻¹ s⁻¹. Moreover, the kon with Spy_(29-124) K121D R122D is 188000 M⁻¹ s⁻¹. The Kd with Spy_(29-138) was 313 nM; in the assay with Spy_(21-130) it was 2490 nM.
